Results published in US20210017226A1, “METHOD OF GENERATING INTERACTING PEPTIDES” (Peption, LLC, priority 2017, published 2021).
Ends that are not written are not given here.

How the values were obtained:
[1] = molecular target: T1, PTD12 (Sp-C9_CAA813-821), synthetic Cas9 target peptide […] (Streptococcus pyogenes); test: dot blot densitometry, same amount of purified proteins
[2] = molecular target: T1, PTD12 (Sp-C9_CAA813-821), synthetic …; test: dot blot densitometry

## MHHHHHHELLLSVEVQQLCYPENLEYLFIEKL (designed binder, not shown: small tags and cut ends; large carriers) [C9-813-CAA2 (dimer, parallel-linker-antiparallel), recombinant CAAP oligopeptide-AP fusion protein]
[1]
  fold stronger interaction than C9-813-92P or C9-813-93P (monomers): 2.5 fold
  fold stronger interaction than C9-813-CAA4 (tetramer): 1.5 fold

B1: C9-813-CAA4 (tetramer, parallel-linker-antiparallel-linker-parallel-linker-antiparallel), recombinan (designed binder)
chain: MHHHHHHLLSVEVQQLCYPENLEYLFIEKLRSEAEGNGTIDFELLQVDVILLKTGEVNNLEQIKIRLF
[2]
  fold stronger interaction than the monomers (C9-813-92P, C9-813-93P): 1.5 fold

## LLQVDVILLCYPENLEQIKIRLFGSGSHHHHHH (designed binder, also: dimer) [PTD14 (Sp-C9_CAA813-821PAPH), synthetic His-tagged CAAP oligopeptide dimer]
[2]
  fold stronger interaction than the monomer PTD13: 2 fold
  fold stronger interaction than the sAb monomer PTD13: 2 fold
